This note sets out measurements from patent US20220096654A1, “PYRROLOBENZODIAZEPINE-ANTIBODY CONJUGATES AND USES THEREOF” (ADC THERAPEUTICS SA, priority 2020, published 2022).

In experiment [1] the test system is Nalm6 (CD45-). Briefly: Cell viability assay 5 days (PrestoBlue), Nalm6. It counts as cell-based, human. Conditions: rat IgG2b ADC, n=3. How it is done:
(§1) OCIM1, Jurkat and Nalm6 cells were seeded at a final concentration of 1.275×10^4/mL and for 5 days in presence of rat IgG2b Mab or ADC or medium (in triplicate) in wells of flat bottom 96-well plates. 293T cells were seeded at 9.3×10^3 cells per 100 uL per well in flat bottom 96-well plates and allowed to adhere the plate for up to 24 hours. 293T cells were subsequently cultured with rat IgG2b Mabs or ADC or medium (in triplicate wells) as described above. PrestoBlue® Cell viability Reagent (Thermo Fisher Scientific) was added to each and incubated for up to 1.5 hours. Fluorescence intensity from each well was detected using a FLUOstar OPTIMA microplate reader (BMG Labtech). Data was plotted using Prism 8.0 and sigmoid dose-response non-linear regression was used to determine EC50 values. Data points are mean±s.d. for representative experiments.

The subject of experiment [2] is 293T (CD45-). Briefly: Cell viability assay 5 days (PrestoBlue), 293T. Conditions: rat IgG2b ADC, n=3. The format is cell-based, human. How it is done: as §1
For experiment [3], the system named is fLuc+ OCIM1 cells. Briefly: Established AML model in NSG mice, treatment 10 days post-injection. It counts as in vivo. Conditions: for mice alive at 60 days: cohorts of 5 mice, all tumor-bearing. How it is done:
(§2) NSG mice were transplanted with 7.5×10^6 fLuc+ OCIM1 cells i.v. At 10 days post-injection of AML cells, unconjugated antibody or ADCs were injected i.v. via a tail vein at a dose of 1 mg/kg or 5 mg/kg. Mice were regularly monitored for signs of morbidity for the duration of the experiment. For imaging, mice were injected intraperitoneally with 200 μl of 15 mg/mL D-luciferin (Regis Technologies) in PBS. Mice were subsequently anesthetized with 4% isoflurane and maintained at 2% isoflurane. Ten minutes after injection of D-luciferin, mice were placed with anterior side up inside a IVIS Lumina III (PerkinElmer). A sub-saturating image was captured using the auto-exposure setting in the Living Image software (v4.5). Quantification and preparation of images was also carried out using the same software.

The subject of experiment [4] is fLuc+ OCIM1 cells. Briefly: AML model in NSG mice, treatment the day after cell injection. Conditions: for tumor (bioluminescence) signal: 1 mg/kg or 5 mg/kg i.v. the day after OCIM1 injection. It counts as in vivo. How it is done: as §2, with “7.5×10^6 luciferase expressing” for “7.5×10^6”, “On the following day,” for “At 10 days post-injection of AML cells,”, “rat IgG2b antibodies” for “antibody”

Experiment [5] concerns human CD45+ cells. Briefly: Allogeneic stem cell transplant model in humanized NSG mice, comparison of payloads. The format is in vivo. Conditions: for mean % hCD45+ engraftment in the bone marrow: 8 weeks after allogeneic GFP+ cells, PBS 14.12%. The protocol:
Adult NSG mice (Charles River Laboratories) were sublethally irradiated with 2.5 Gy in a ^137Cs irradiator. On the following day, mice were injected with 0.5×10^6 freshly thawed cryopreserved human CD34+ cells from a health donor were injected via the tail vein in 150 μL PBS using a 29 gauge MicroFine Plus insulin syringe (BD). Engraftment of human cells in the blood was assessed periodically from 6 weeks after transplantation. At 10 weeks post-transplant, humanized NSG mice were assigned into cohorts with similar median human CD45+ cell engraftment in the blood, as determined by flow cytometry. Mice were injected with PBS or 1 mg/kg YTH24.5-B1. Sixteen 16 days after treatment, mice were transplanted with 0.5×10^6 GFP+CD34+ cells from another healthy donor. Irradiated NSG […] were also transplanted with the GFP+CD34+ from the allogeneic healthy donor as a control for engraftment of the GFP+CD34+ cells. 8 weeks after transplantation of GFP+ cells, mice were culled and blood, spleen and bone marrow taken for analysis by flow cytometry.
Experimental schedule is as previously described in example 16 but with the following modifications. Humanized NSG mice at 10 weeks post-transplant were injected with PBS or 1 mg/kg YTH24.5-B1, YTH54.12-B1, Isotype-B1, YTH24.5-B4 and Isotype-3376. Isotype-B2 and YTH24.5-B2 was given at a dose of 5 mg/kg. Transplantation of 0.5×10^6 GFP+CD34+ from an allogeneic human donor and analysis at 8 weeks post-transplant of GFP+ cells was carried out as previously described.

B1: YTH54.12-B4: rat IgG2b anti-CD45 antibody YTH54.12 conjugated to non-cleavable PBD drug-linker B4 (drawing 46) (conjugate)
heavy: EVQLVESGGGLVQPGGSMKLSCAASGFTFSDYYMAWVRQAPKKGLEWVASMSFAGSSTYYGDSVKGRFTISRDNAKTTLYLQMNSLRSEDTATYYCARMYTTDYYLYWYFDFWGPGTMVTVSSAQTTAPSVYPLAPGCGDTTSSTVTLGCLVKGYFPEPVTVTWNSGALSSDVHTFPAVLQSGLYTLTSSVTSSTWPSQTVTCNVAHPASSTKVDKKVERRNGGIGHKCPTCPTCHKCPVPELLGGPSVFIFPPKPKDILLISQNAKVTCVVVDVSEEEPDVQFSWFVNNVEVHTAQTQPREEQYNSTFRVVSALPIQHQDWMSGKEFKCKVNNKALPSPIEKTISKPKGLVRKPQVYVMGPPTEQLTEQTVSLTCLTSGFLPNDIGVEWTSNGHIEKNYKNTEPVMDSDGSFFMYSKLNVERSRWDSRAPFVCSVVHEGLHNHHVEKSISRPPGK
light: DVQMTQSPSYLAASPGESVSISCKASKSISNYLAWYQQKPGEANKILIYSGSTLQSGTPSRFSGSGSGTDFSLTIRNLEPEDFAVYYCQQYDEKPLTFGSGTKLEIKRADAAPTVSIFPPSMEQLTSGGATVVCFVNNFYPRDISVKWKIDGSEQRDGVLDSVTDQDSKDSTYSMSSTLSLTKVEYERHNLYTCEVVHKTSSSPVVKSFNRNEC
For orientation: EC50 means the concentration at which the effect is half-maximal. Read a high EC50 as weaker potency. B1: the EC50 was 0.715 nM in experiment [1] and above 6 nM in experiment [2]. Moreover, the “mice alive at 60 days” value in experiment [3] is 4/5.

B2: YTH54.12-B7: rat IgG2b anti-CD45 antibody YTH54.12 conjugated to PBD drug-linker B7 (drawing 49) (conjugate)
heavy: B1 heavy
light: B1 light
As to B2, the EC50 in experiment [1] is 1.56 nM; in experiment [2], above 6 nM.

B3: YTH54.12-B2: rat IgG2b anti-CD45 antibody YTH54.12 conjugated to PBD drug-linker B2 (drawing 44) (conjugate)
heavy: B1 heavy
light: B1 light
With B3, the EC50 in experiment [1] was 0.0279 nM; in experiment [2], above 6 nM.

B4: YTH24.5-B4: rat IgG2b anti-CD45 antibody YTH24.5 conjugated to non-cleavable PBD drug-linker B4 (drawing 46) (conjugate)
heavy: QVNLLQSGAALVKPGASVKLSCKASSYTFTDYYIHWVKQSHGKTLEWIGYINPKSGFTNYNEKFRRKATLTVDKSTNTAYMDISRLTSEDSATYYCTRRTGVIPMDAWGQGASVTVSSAQTTAPSVYPLAPGCGDTTSSTVTLGCLVKGYFPEPVTVTWNSGALSSDVHTFPAVLQSGLYTLTSSVTSSTWPSQTVTCNVAHPASSTKVDKKVERRNGGIGHKCPTCPTCHKCPVPELLGGPSVFIFPPKPKDILLISQNAKVTCVVVDVSEEEPDVQFSWFVNNVEVHTAQTQPREEQYNSTFRVVSALPIQHQDWMSGKEFKCKVNNKALPSPIEKTISKPKGLVRKPQVYVMGPPTEQLTEQTVSLTCLTSGFLPNDIGVEWTSNGHIEKNYKNTEPVMDSDGSFFMYSKLNVERSRWDSRAPFVCSVVHEGLHNHHVEKSISRPPGK
light: DVVMTQTPVSLSVSLGGQVSISCRSSQSFVSSDGNTYLNWYLQKPGQSPQLLIYKVSNRLSGVPDRFSGSGSGTDFTLKISRVEHDDLGVYYCGQASKIPLTFGSGTKLEIKRADAAPTVSIFPPSMEQLTSGGATVVCFVNNFYPRDISVKWKIDGSEQRDGVLDSVTDQDSKDSTYSMSSTLSLTKVEYERHNLYTCEVVHKTSSSPVVKSFNRNEC
In the case of B4, the EC50 in experiment [1] came to 0.162 nM. Further, the EC50 in experiment [2] was above 6 nM. The “period of tumor regression / low tumor signal” value in experiment [3] is reported as “marginally longer period of low tumor signal than YTH24.5-B1”. Moreover, the “tumor (bioluminescence) signal” value in experiment [4] is “Low/absent tumor signal”. Further, in experiment [5] (1 mg/kg), the “percentage GFP+ human CD34+ cells in the bone marrow (mean)” value was 57.95% and the “mean % hCD45+ engraftment in the bone marrow” value amounted to 7.34%.

B5: YTH24.5-B7: rat IgG2b anti-CD45 antibody YTH24.5 conjugated to PBD drug-linker B7 (drawing 49) (conjugate)
heavy: B4 heavy
light: B4 light
Consider B5, for which the EC50 was 0.905 nM in experiment [1] and above 6 nM in experiment [2]. Also, the “tumor (bioluminescence) signal” value in experiment [4] is “Increasing tumor signal in three mice”. Moreover, in experiment [4] (1 mg/kg or 5 mg/kg i.v., cohorts of 5 mice), the “mice developing tumor / tumor signal” value is 3/5.

B6: YTH24.5-B2: rat IgG2b anti-CD45 antibody YTH24.5 conjugated to PBD drug-linker B2 (drawing 44) (conjugate)
heavy: B4 heavy
light: B4 light
In experiment [1], B6 displayed an EC50 of 0.0301 nM. In experiment [2], this molecule yielded an EC50 above 6 nM. Also, in experiment [3], the “period of tumor regression / low tumor signal” value is listed as “shortest period of tumor regression”, the “time within which tumor signal increased again” value was at most 10 days and the “mice alive at 60 days” value is listed as 1/5. Besides, the “tumor (bioluminescence) signal” value in experiment [4] is on record as “Low/absent tumor signal”. Also, in experiment [5] (5 mg/kg), the “percentage GFP+ human CD34+ cells in the bone marrow (mean)” value stood at 72.14% and the “mean % hCD45+ engraftment in the bone marrow” value is given as 1.089%.
